{
  "source": "paper PMC5558965",
  "about": "“Cysteine-rich protein 2 accelerates actin filament cluster formation” (PLoS ONE, 2017)",
  "binders": {"B1": {"name": "Cysteine-rich protein 2 (CRP2), recombinant mouse, full length, with (His)6 tag at the C-terminus (natural protein)", "chain": "MPVWGGGNKCGACGRTVYHAEEVQCDGRSFHRCCFLCMVCRKNLDSTTVAIHDEEIYCKSCYGKKYGPKGYGYGQGAGTLNMDRGERLGIKPESAQPHRPTTNPNTSKFAQKYGGAEKCSRCGDSVYAAEKIIGAGKPWHKNCFRCAKCGKSLESTTLTEKEGEIYCKGCYAKNFGPKGFGYGQGAGALVHAQ"}},
  "target": "Actin protein (from Bovine skeletal muscle), polymerised to F-actin (bovine, UniProt P68138 1-377)",
  "test": "cell-based or functional assay",
  "data": [
    {"binder": "B1", "values": [
      {"measurement": "SAXS decreasing ratio d (0.01 < Q < 0.016) of F-actin; F-actin:CRP2 ratio 1:0 to 1:4.6 (d 1.4 to 3.4)", "value": 3.4}
    ]}
  ]
}
